US20190241895

System: secretory immunoglobulin A (sIgA) (Homo sapiens)
Assay: SPR
[1] = NG7 (guanine-residue-modified T) at T after the 5' primer region GGTTTGGACGCAATCTCCCTAATC, 3' poly(dA)20 added for SPR, SPR buffer 1 mM MgCl2 pH 7.4
[2] = KS9 (adenine-residue-modified T) at T after the 5' primer region GGTTTGGACGCAATCTCCCTAATC, 3' poly(dA)20 added for SPR, SPR buffer 1 mM MgCl2 pH 7.4
[3] = NG7 (guanine-residue-modified T) at underlined T i.e. T after GCAATCTCCCTAATC, 3' poly(dA)20 added for SPR, SPR buffer 1 mM MgCl2 pH 7.4
[4] = MK4 (adenine-residue-modified dA) at A after the 5' primer region GGTTTGGACGCAATCTCCCTAATC, 3' poly(dT)20 added for SPR, SPR buffer 1 mM MgCl2 pH 7.4
[5] = KS9 (adenine-residue-modified T) at the T after GCAATCTCCCTAATC, 3' poly(dA)20 added for SPR, SPR buffer 1 mM MgCl2 pH 7.4

Work on “GGTTTGGACGCAATCTCCCTAATCTACTACGATATCCAGATGGGAAGTGACCGTGAAACTACAATGGGCGGGCTTATC [MK4 aptamer SEQ 1]” yielded a Kd (MK4 (adenine-residue-modified dA) at A after the 5' primer region GGTTTGGACGCAATCTCCCTAATC, 3' poly(dT)20 added for SPR, 40 mM HEPES, 125 mM NaCl, 5 mM KCl, 1 mM MgCl2, 0.01% Tween 20, pH 7.4) of 8.6 nM.

For “GGTTTGGACGCAATCTCCCTAATCTGCTGATGTTTGTATTTCAAATTAGCCGCAGAAACTACAATGGGCGGGCTTATC [NG7 aptamer SEQ 5]”, the Kd [1] was 11.8 nM.

“GGTTTGGACGCAATCTCCCTAATCCTATCTGTTTTATCAATTGTAGCAAGTTATGAAACTACAATGGGCGGGCTTATC [KS9 aptamer SEQ 12]” gave a Kd [2] of 9 nM.

“GGTTTGGACGCAATCTCCCTAATCGTATATCAAGCAGATGTGTTCACTTGGGGAGAAACTACAATGGGCGGGCTTATC [KS9 aptamer SEQ 8]” gave a Kd [2] of 10 nM.

Work on “GGTTTGGACGCAATCTCCCTAATCTTTATACGTATGGACTTAGGCTTTGTTATAGAAACTACAATGGGCGGGCTTATC [KS9 aptamer SEQ 11]” yielded a Kd [2] of 1.3 nM.

Work on “GGTTTGGACGCAATCTCCCTAATCAGACAATATTAGAGTGTTACCACCTGTGATGAAACTACAATGGGCGGGCTTATC [NG7 aptamer SEQ 7]” yielded a Kd [1] of 37.7 nM.

Sequence “GGTTTGGACGCAATCTCCCTAATCACCTGTACTGGTTATTATGCCTGCCAACATGAAACTACAATGGGCGGGCTTATC [KS9 aptamer SEQ 10]” has a Kd [2] of 30.2 nM.

For “GCAATCTCCCTAATCTGCTGATGTTTGTATTTCAAATTAGCCGCAG [NG7 aptamer SEQ 14]”, the Kd [3] was 10 nM.

For “GGTTTGGACGCAATCTCCCTAATCAAGCCACGGAGAGTCCGAGGTGACCATTAAGCAGGAAACTACAATGGGCGGGCTTA [MK4 aptamer SEQ 3]”, the Kd [4] was 7.6 nM.

In the case of “GGTTTGGACGCAATCTCCCTAATCAAAGATATGCTAAGATAGATAGTTTGGCTTGAAACTACAATGGGCGGGCTTATC [KS9 aptamer SEQ 9]”, the Kd [2] is reported as 4.8 nM.

“GGTTTGGACGCAATCTCCCTAATCTAAATAGATTTCACAGTGGATCCTTCAGAGGAAACTACAATGGGCGGGCTTATC [NG7 aptamer SEQ 6]” gave a Kd [1] of 11.6 nM.

“GCAATCTCCCTAATCAAAGATATGCTAAGATAGATAGTTTGGCTTG [KS9 aptamer SEQ 19]” was tested, and the Kd [5] was 8 nM.

“GGTTTGGACGCAATCTCCCTAATCAGATGATATCGAGATGCGAAGCGACCGCATGAAACTACAATGGGCGGGCTTATC [MK4 aptamer SEQ 2]” gave a Kd [4] of 7.6 nM.

For “GCAATCTCCCTAATCTTTATACGTATGGACTTAGGCTTTGTTATAGAAAC [KS9 aptamer SEQ 21]”, the Kd [5] was 2.1 nM.

Sequence “GCAATCTCCCTAATCTGCTGATGTTTGTATTTCAAATTAGC [NG7 aptamer SEQ 15]” has a Kd [3] of 2.59 nM.

For “GCAATCTCCCTAATCGTATATCAAGCAGATGTGTTCACTTGGGGAG [KS9 aptamer SEQ 17]”, the Kd [5] was 12.9 nM.

“GGTTTGGACGCAATCTCCCTAATCGATCTAGATGGTCTCGGGTATGGCTAGATAGAAACTACAATGGGCGGGCTTATC [MK4 aptamer SEQ 4]” gave a Kd [4] of 17.4 nM.
